Test results: paper PMC3431827

Target: 2,4,6-TCP 4-monooxygenase (TcpA) from Cupriavidus necator JMP134 (Cupriavidus necator JMP134)
Experiment: SEC-MALS; 100 μg TcpA on BioSep-SEC-S 2000 column, isocratic, 0.5 mL/min; multi-angle laser light scattering; tetramer

stoichiometry N: 4
Substance: 2,4,6-TCP 4-monooxygenase (TcpA) from Cupriavidus necator JMP134 (enzyme)
